# Measured values: patent US20220402983A1 (Janssen / Centocor, published 2022)
# *1 amine or outer side, *2 acyl side, *3 side chain or, on linkers, in order; H or OH if unused. Bridges are numbered along the chain shown (N, C = ends). Primed or numbered codes have the meaning given here. Where no end group is shown, it is not given here. [ ]: non-standard residue; d: D form. The star is where a group is joined. 4AcDPhe = D-(4-acyl)phenylalanine, CC(=O)c1ccc(C[C@@H](N[*:1])C(=O)[*:2])cc1; Phe(4-OMe)″ = 4-methoxyphenylalanine, COc1ccc(C[C@H](N[*:1])C(=O)[*:2])cc1; Trp(7-Ph) = N[C@@H](Cc1c[nH]c2c(-c3ccccc3)cccc12)C(=O)O; Phe(4-CONH2) = NC(=O)c1ccc(C[C@H](N)C(=O)O)cc1; Trp(7-Me) = Cc1cccc2c(C[C@H](N)C(=O)O)c[nH]c12; Phe(3R-Me) = C[C@H](c1ccccc1)[C@H](N)C(=O)O; dPhe(4-NH2) = Nc1ccc(C[C@@H](N)C(=O)O)cc1; αMeW = C[C@](N)(Cc1c[nH]c2ccccc12)C(=O)O; FPrpTriazoleMe_Acid = not defined here; 2Nal = N[C@@H](Cc1ccc2ccccc2c1)C(=O)O; AEF = NCCOc1ccc(C[C@H](N)C(=O)O)cc1; αMeF = C[C@](N)(Cc1ccccc1)C(=O)O; αMeE = C[C@](N)(CCC(=O)O)C(=O)O; Pen = CC(C)(S)[C@H](N)C(=O)O; αMeK = C[C@](N)(CCCCN)C(=O)O; Ac6c = NC1(C(=O)O)CCCCC1; Thp = NC1(C(=O)O)CCOCC1; Abu = CC[C@H](N)C(=O)O; Ac3c = NC1(C(=O)O)CC1; BH = not defined here; pr = not defined here; Aib = CC(C)(N)C(=O)O; Piv = CC(C)(C)C(=O)*; Alloc = C=CCOC(=O)*; Propyl = CCC*
# T1: human IL-23R (interleukin-23 receptor) (human, UniProt Q5VWK5 24-629)
# T1 sequence (looked up): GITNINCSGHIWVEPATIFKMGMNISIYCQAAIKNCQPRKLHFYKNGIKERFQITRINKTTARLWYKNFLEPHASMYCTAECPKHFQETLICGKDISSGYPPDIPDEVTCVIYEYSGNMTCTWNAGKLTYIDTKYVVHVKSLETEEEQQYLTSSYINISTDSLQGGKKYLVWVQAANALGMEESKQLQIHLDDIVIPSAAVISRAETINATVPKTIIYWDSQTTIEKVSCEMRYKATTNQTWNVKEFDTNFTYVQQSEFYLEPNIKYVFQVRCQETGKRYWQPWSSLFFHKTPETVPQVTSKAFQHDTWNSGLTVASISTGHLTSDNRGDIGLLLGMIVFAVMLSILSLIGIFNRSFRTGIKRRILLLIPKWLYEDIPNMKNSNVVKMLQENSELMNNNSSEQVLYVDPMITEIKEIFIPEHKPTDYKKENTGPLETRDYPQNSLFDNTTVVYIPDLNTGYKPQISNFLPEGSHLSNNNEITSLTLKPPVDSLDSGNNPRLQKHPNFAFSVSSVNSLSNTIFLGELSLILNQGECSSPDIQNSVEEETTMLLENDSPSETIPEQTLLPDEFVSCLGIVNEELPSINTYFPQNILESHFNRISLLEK
# Biological target: T1, human IL-23R (interleukin-23 receptor)
# Test: cell-based or functional assay
Binder,PBMC pSTAT3 IC50 (nM),"pStat3 HTRF (nM), IC50, DB cells IL23R pSTAT3 cell assay [nM]"
[dR][Abu]QTWQC[Phe(4-OMe)″][2Nal][Thp]EN[Thp]-NH2 (thioether 2-7) [Compound No. 22],22,–
Ac-[dR][Abu]QTWQC[AEF][2Nal][Thp][αMeE]N[Phe(4-CONH2)]-NH2 (thioether 2-7) [Compound No. 34],5.8,–
[dR][Abu]QTWQC[Phe(4-OMe)″][2Nal][Thp]EN[Thp]-NH2 (thioether 2-7; not fully specified (N-terminus)) [Compound No. 21],21,–
Ac-[dR][Pen]NT[Trp(7-Me)]K(Ac)[Pen][AEF][2Nal][Thp]EN[Phe(3R-Me)]-NH2 (disulfide 2-7; SMILES CC(=O)NCCCC[C@@H]1NC(=O)[C@H](Cc2c[nH]c3c(C)cccc23)NC(=O)[C@H]([C@@H](C)O)NC(=O)[C@H](CC(N)=O)NC(=O)[C@@H](NC(=O)[C@@H](CCCNC(=N)N)NC(C)=O)C(C)(C)SSC(C)(C)[C@@H](C(=O)N[C@@H](Cc2ccc(OCCN)cc2)C(=O)N[C@@H](Cc2ccc3ccccc3c2)C(=O)NC2(C(=O)N[C@@H](CCC(=O)O)C(=O)N[C@@H](CC(N)=O)C(=O)N[C@H](C(N)=O)[C@H](C)c3ccccc3)CCOCC2)NC1=O) [Compound No. 313],21,–
Ac-[dR][Abu]QTWQC[AEF][2Nal][Thp]ENF-NH2 (thioether 2-7) [Compound No. 17],3.4,–
Ac-[dR][Abu]QT[Trp(7-Ph)]K(Ac)C[AEF][2Nal][αMeK]K(Ac)N[αMeF]-NH2 (thioether 2-7) [Compound No. 11],–,13.9
[dR]CQTWQ[Pen][AEF][2Nal][Thp]EN[Thp]-NH2 (disulfide 2-7; not fully specified (N-terminus)) [Compound No. 20],3.1,–
Ac-[dR][Abu]QTWQC[AEF][2Nal][Ac6c][αMeE]N[αMeF]-NH2 (thioether 2-7) [Compound No. 29],30,–
Ac-[dR][Abu]QTWQC[AEF][2Nal][Thp][αMeE]N[αMeW]-NH2 (thioether 2-7) [Compound No. 31],16,–
Ac-[dR][Pen]NT[Trp(7-Me)]K(Ac)[Pen][AEF](BH)[2Nal][Thp]EN[αMeF]-NH2 (disulfide 2-7; reading uncertain) [Compound No. 314],75,–
FPrpTriazoleMe_Acid-[dR][Abu]QTWQC[Phe(4-OMe)″][2Nal][Thp]EN[Thp]-NH2 (thioether 2-7; reading uncertain) [Compound No. 25],21,–
Ac-[dR][Abu]QTWQC[AEF][2Nal][Thp][αMeE]N[1(2Nal)]-NH2 (thioether 2-7) [Compound No. 32],19,–
pr-[dR][Pen]QTWQ[Pen][AEF][2Nal][Thp]K(Piv)NF-NH2 (disulfide 2-7; reading uncertain) [Compound No. 26],8.2,–
Ac-[dR][Abu]QTWQC[AEF][2Nal][Thp]QN[αMeF]-NH2 (thioether 2-7) [Compound No. 30],25,–
RXQTWQCFXXENN (not fully specified; Ac-[(D)Arg]-[Abu]-Q-T-W-Q-[Cys]-Phe[4-(2-aminoethoxy)]-[2-Nal]-[THP]-E-N-N-ac; cyclized: Abu-Cys thioether bond) [Compound No. 12],20,–
Ac-[dR][Pen]NT[Trp(7-Me)]K(Ac)[Pen][AEF][2Nal][Ac3c]ENH[4AcDPhe]-NH2 (disulfide 2-7; SMILES CC(=O)NCCCC[C@@H]1NC(=O)[C@H](Cc2c[nH]c3c(C)cccc23)NC(=O)[C@H]([C@@H](C)O)NC(=O)[C@H](CC(N)=O)NC(=O)[C@@H](NC(=O)[C@@H](CCCNC(=N)N)NC(C)=O)C(C)(C)SSC(C)(C)[C@@H](C(=O)N[C@@H](Cc2ccc(OCCN)cc2)C(=O)N[C@@H](Cc2ccc3ccccc3c2)C(=O)NC2(C(=O)N[C@@H](CCC(=O)O)C(=O)N[C@@H](CC(N)=O)C(=O)N[C@@H](Cc3c[nH]cn3)C(=O)N[C@H](Cc3ccc(C(C)=O)cc3)C(N)=O)CC2)NC1=O) [Compound No. 316],2.1,–
Ac-[dR][Abu]QTWQC[AEF][2Nal][Ac6c][αMeE]NF[Aib]-NH2 (thioether 2-7) [Compound No. 28],23,–
XNTXKXXXXENX (MeCO-Pen-N-T-7MeW-K(Ac)-Pen-AEF-2Nal-Acpx-E-N-THP---CONH2; cyclized: Pen-Pen disulfide bond) [Compound No. 317],13,–
Ac-[dR][Abu]QTWQC[AEF][2Nal][Ac6c][αMeE]NF-NH2 (thioether 2-7) [Compound No. 27],11,–
Ac-[dR][Pen]NT[Trp(7-Me)]K(Ac)[Pen][AEF][2Nal][Ac3c]ENH[dPhe(4-NH2)]-NH2 (disulfide 2-7; SMILES CC(=O)NCCCC[C@@H]1NC(=O)[C@H](Cc2c[nH]c3c(C)cccc23)NC(=O)[C@H]([C@@H](C)O)NC(=O)[C@H](CC(N)=O)NC(=O)[C@@H](NC(=O)[C@@H](CCCNC(=N)N)NC(C)=O)C(C)(C)SSC(C)(C)[C@@H](C(=O)N[C@@H](Cc2ccc(OCCN)cc2)C(=O)N[C@@H](Cc2ccc3ccccc3c2)C(=O)NC2(C(=O)N[C@@H](CCC(=O)O)C(=O)N[C@@H](CC(N)=O)C(=O)N[C@@H](Cc3c[nH]cn3)C(=O)N[C@H](Cc3ccc(N)cc3)C(N)=O)CC2)NC1=O) [Compound No. 315],2,–
[dR]CQTWQ[Pen][AEF][2Nal][Thp]EN[αMeF]-NH2 (disulfide 2-7; not fully specified (N-terminus)) [Compound No. 23],17,–
Propyl-[dR][Pen]QTWQ[Pen][AEF][2Nal][Thp]K(Alloc)NF-NH2 (disulfide 2-7; SMILES C=CCOC(=O)NCCCC[C@H](NC(=O)C1(NC(=O)[C@H](Cc2ccc3ccccc3c2)NC(=O)[C@H](Cc2ccc(OCCN)cc2)NC(=O)[C@H]2NC(=O)[C@H](CCC(N)=O)NC(=O)[C@H](Cc3c[nH]c4ccccc34)NC(=O)[C@H]([C@@H](C)O)NC(=O)[C@H](CCC(N)=O)NC(=O)[C@@H](NC(=O)[C@@H](CCCNC(=N)N)NCCC)C(C)(C)SSC2(C)C)CCOCC1)C(=O)N[C@@H](CC(N)=O)C(=O)N[C@@H](Cc1ccccc1)C(N)=O) [Compound No. 33],11,–
